The values that follow are results of earlier work, collected in article PMC12115143.

The target of data set [1] is AHP2 (Arabidopsis thaliana) (UniProt Q9ZNV8).
The target in data set [2] is AHP1 (Arabidopsis thaliana) (UniProt Q9ZNV9).
UniProt Q9ZNV9, sequence (Q9ZNV9 whole entry): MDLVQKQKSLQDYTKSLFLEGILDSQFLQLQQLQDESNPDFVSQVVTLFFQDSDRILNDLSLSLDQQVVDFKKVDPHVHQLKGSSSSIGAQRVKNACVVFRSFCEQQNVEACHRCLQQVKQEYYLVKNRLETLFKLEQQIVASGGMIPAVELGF

UniProt Q9ZNV8, sequence (Q9ZNV8 whole entry): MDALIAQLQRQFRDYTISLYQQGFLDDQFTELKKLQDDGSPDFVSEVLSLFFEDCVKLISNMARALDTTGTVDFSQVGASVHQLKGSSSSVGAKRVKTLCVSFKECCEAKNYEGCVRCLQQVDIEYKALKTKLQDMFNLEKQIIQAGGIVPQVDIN

With AHK1 (from UniProt Q9SXL4), the Kd in data set [1] was 300 nM.
Regarding ETR1 (from UniProt P49333), the Kd in data set [2] was 1500 nM.
